Values of other authors as cited in publication PMC2650229.

Biological target: ERp57 b' domain (Homo sapiens) (UniProt P30101)
Sequence of UniProt P30101 (P30101 241-360): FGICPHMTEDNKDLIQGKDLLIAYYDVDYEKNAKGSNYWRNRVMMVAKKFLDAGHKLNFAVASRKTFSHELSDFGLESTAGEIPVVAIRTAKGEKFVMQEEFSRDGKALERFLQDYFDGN

Kd: 2.6 µM
Substance: calreticulin P-domain (from UniProt P27797)
